The values that follow come from patent US20080166370A1, “Immunogenic Compositions Comprising Multiple Gonococcal Antigens” (CHIRON SRL, priority 2003, published 2008).

In test [1] the test system is complement cascade. Nature of the test: C3 binding assay. The conditions noted are these: FIG. 10.
Test [2] deals with T1, C4b binding protein (C4bp) (Homo sapiens, UniProt P04003).
T1 construct: incubated with 10% NHS as source of C4bp; from tissue; host or cells: 10% NHS (serum)
T1 sequence (P04003 49-597): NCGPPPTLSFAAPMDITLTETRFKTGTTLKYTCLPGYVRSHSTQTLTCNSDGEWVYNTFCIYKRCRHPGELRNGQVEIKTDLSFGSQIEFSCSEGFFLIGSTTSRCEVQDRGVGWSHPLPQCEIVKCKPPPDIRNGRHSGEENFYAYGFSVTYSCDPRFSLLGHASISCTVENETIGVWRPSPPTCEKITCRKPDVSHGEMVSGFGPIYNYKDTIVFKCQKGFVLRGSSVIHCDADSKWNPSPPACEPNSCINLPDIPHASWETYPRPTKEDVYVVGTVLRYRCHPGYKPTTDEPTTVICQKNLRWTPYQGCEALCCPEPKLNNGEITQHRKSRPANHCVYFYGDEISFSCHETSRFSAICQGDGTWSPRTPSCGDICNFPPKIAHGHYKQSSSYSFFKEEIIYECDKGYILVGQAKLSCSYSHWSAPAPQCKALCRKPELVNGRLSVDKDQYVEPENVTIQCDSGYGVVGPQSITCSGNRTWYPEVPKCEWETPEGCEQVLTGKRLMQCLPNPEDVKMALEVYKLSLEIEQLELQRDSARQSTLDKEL
T1 sequence (P20851 18-252 partner): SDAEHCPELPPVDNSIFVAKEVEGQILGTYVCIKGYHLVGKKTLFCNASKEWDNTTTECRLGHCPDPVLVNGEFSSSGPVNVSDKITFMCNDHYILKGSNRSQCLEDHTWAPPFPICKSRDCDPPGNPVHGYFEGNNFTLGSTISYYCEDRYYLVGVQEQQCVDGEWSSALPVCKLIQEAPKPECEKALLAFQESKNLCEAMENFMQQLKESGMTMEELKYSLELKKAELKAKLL
The experiment in a line: ELISA for the interaction of C4bp with immobilized OmpA. Conditions: OmpA immobilized from 0.15 mg to 20 mg; 10% NHS as source of C4bp (FIG. 24). How it is done: It is known that some antigens contribute to serum resistance by binding to complement regulatory protein C4b binding protein (C4bp), leading to a decrease in serum killing by complement attack. […] In further experiments, purified OmpA and three negative control proteins were immobilized in the wells of a microtiter plate at different concentrations (from 0.15 mg to 20 mg). The wells were blocked with 5% skimmed milk in PBS and then incubated with 10% NHS as source of C4bp.
On the technique in general: In an ELISA, binding on a coated surface is turned into a signal by an enzyme label.

Test [3] concerns the target T2, C4b binding protein (C4bp) (Homo sapiens, UniProt P04003).
T2 sequence (P04003 49-597): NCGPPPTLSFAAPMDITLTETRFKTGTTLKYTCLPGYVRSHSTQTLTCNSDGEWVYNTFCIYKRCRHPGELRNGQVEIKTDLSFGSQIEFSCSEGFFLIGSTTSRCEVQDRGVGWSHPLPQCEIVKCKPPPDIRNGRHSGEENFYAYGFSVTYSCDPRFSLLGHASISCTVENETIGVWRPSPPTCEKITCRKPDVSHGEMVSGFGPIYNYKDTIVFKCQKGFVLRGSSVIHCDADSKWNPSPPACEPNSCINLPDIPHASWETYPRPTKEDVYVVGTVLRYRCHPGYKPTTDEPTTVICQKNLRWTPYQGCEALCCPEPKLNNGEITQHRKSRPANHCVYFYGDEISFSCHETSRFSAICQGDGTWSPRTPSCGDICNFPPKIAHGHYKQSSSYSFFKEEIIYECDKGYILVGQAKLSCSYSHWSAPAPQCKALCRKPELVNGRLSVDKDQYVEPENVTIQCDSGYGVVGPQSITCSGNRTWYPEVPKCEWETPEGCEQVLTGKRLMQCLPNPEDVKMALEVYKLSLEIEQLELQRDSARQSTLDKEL
The experiment in a line: Dot blot ligand overlay analysis of C4bp binding. Conditions: C4bp 10 mg/ml; OmpA from 0.1 mg to 4 mg (FIG. 23).

Test [4] deals with ME-180 human cervical epithelial cells. The experiment in a line: Immunofluorescence microscopy of purified OmpA binding to epithelial cells. Conditions: 1 mg/ml purified OmpA vs PBS control (FIG. 19). The class given is cell-based. How it is done:
Monolayers of the ME-180 cells were treated with PBS (control) or with 1 mg/ml purified OmpA, labeled using polyclonal mouse antiserum against recombinant Ng OmpA-His, followed by anti-mouse Alexa Fluor 488 conjugated antibodies. The results are in FIG. 19.

B1: App: gonococcal App autotransporter protein, SEQ ID 7, related to meningococcal adhesion penetration protein (protein, listed as Neisseria gonorrhoeae)
chain: MKTTDKRTTETHRKAPKTGRIRFSPAYLAICLSFGILPQARAGHTYFGINYQYYRDFAENKGKFAVGAKDIEVYNKKGELVGKSMTKAPMIDFSVVSRNGVAALAGDQYIVSVAHNGGYNNVDFGAEGSNPDQHRFSYQIVKRNNYKAGTNGHPYGGDYHMPRLHKFVTDAEPVEMTSYMDGWKYADLNKYPDRVRIGAGRQYWRSDEDEPNNRESSYHIASAYSWLVGGNTFAQNGSGGGTVNLGSEKIKHSPYGFLPTGGSFGDSGSPMFIYDAQKQKWLINGVLQTGNPYIGKSNGFQLVRKDWFYDEIFAGDTHSVFYEPHQNGKYFFNDNNNGAGKIDAKHKHYSLPYRLKTRTVQLFNVSLSETAREPVYHAAGGVNSYRPRLNNGENISFIDKGKGELILTSNINQGAGGLYFEGNFTVSPKNNETWQGAGVHISDGSTVTWKVNGVANDRLSKIGKGTLLVQAKGENQGSVSVGDGKVILDQQADDQGKKQAFSEIGLVSGRGTVQLNADNQFNPDKLYFGFRGGRLDLNGHSLSFHRIQNTDEGAMIVNHNQDKESTVTITGNKDITTTGNNNNLDSKKEIAYNGWFGEKDATKTNGGLNLNYPPEEADRTLLLSGGTNLNGNITQTNGKLFFSGRPTPHAYNHLGSGWSKMEGIPQGEIVWDNDWIDRTFKAENFHIQGGQAVVSRNVAKVEGDWHLSNHAQAVFGVAPHQSHTICTRSDWTGLTSCTEKTITDDKVIASLSKTDVRGNVSLADHAHLNLTGLATFNGNLVQAETRTIRLRANATQNGNLSLVGNAQATFNQATLNGNTSASDNASFNLSNNAVQNGSLTLSDNAKANVSHSALNGNVSLADKAVFHFENSRFTGKISGGKDTALHLKDSEWTLPSGTELGNLNLDNATITLNSAYRHDAAGAQTGSAADAPRRRSRRSLLSVTPPTSAESRFNTLTVNGKLNGQGTFRFMSELFGYRSGKLKLAESSEGTYTLAVNNTGNEPVSLEQLTVVEGKDNTPLSENLNFTLQNEHVDAGAWRYQLIRKDGEFRLHNPVKEQELSDKLGKAGETEAALTAKQAQLAAKQQAEKDNAQSLDALIAAGRNATEKAESVAEPARQAGGENAGIMQAEEEKKRVQADKDTALAKQREAETRPATTAFPRARRARRDLPQPQPQPQPQPQRDLISRYANSGLSEFSATLNSVFAVQDELDRVFAEDRRNAVWTSGIRDTKHYRSQDFRAYRQQTDLRQIGMQKNLGSGRVGILFSHNRTGNTFDDGIGNSARLAHGAVFGQYGIGRFDIGISAGAGFSSGSLSDGIRGKIRRRVLHYGIQARYRAGFGGFGIEPHIGATRYFVQKADYRYENVNIATPGLAFNRYRAGIKADYSFKPAQHISITPYLSLSYTDAASGKVRTRVNTAVLAQDFGKTRSAEWGVNAEIKGFTLSLHAAAAKGPQLEAQHSAGIKLGYRW
In the case of B1, the “elicitation of complement-activating antibodies” value in test [1] is recorded as “able to elicit antibodies which activate the complement cascade”.

B2: OmpA: gonococcal OmpA protein, SEQ ID 2; expressed in E. coli with C-terminal His-tag and purified (protein, listed as Neisseria gonorrhoeae)
chain: MTFFKPSTVVLTASALALSGCVADPVTGQQSPNKSAMYGLGGAAVCGIVGALTHSGKGARNSALACGAIGAGVGGYMDYQEQRLRQNLAGTQIEIQRQGNQIRLVMPESVTFATGSAALGGSAQYALNTAAQTLVQYPDTTLTINGHTDNTGSDAVNNPLSQHRAQAVAYYLQTRGVAASRLTVYGYGSHMPVASNATVEGRAQNRRVEILINPDQRAVNAARHM
modifications: C-terminal His-tag
notes: expressed in E. coli with C-terminal His-tag and purified
For the molecule B2, the “bound C4bp (ELISA)” value in test [2] was “bound C4bp was detected”. Further, the “C4bp binding (dot blot)” value in test [3] is on record as “binding”. The “binding to ME-180 cells” value in test [4] was “binds”.
